In a protein production outcome set (Wang et al. 2014):

Assay: label from the status in PepcDB records

Row | Sequence | protein production
1 | MINEFFKETVWEEAWKEDQQTAVNKMKKAGMDKVHHFDLRAKSFNEQAFNEEGRKRTKRIMKWLEGQGVTFKDTSILDIGAASGGFTVPFAERGAEVTAVEPSLPLVELMKENITGITNGKVKIVAEPFEDIDIQAKGWGNAFDFVFVSMCPAIADWESVKRVLSCARQFCYISLSAGSREHSLLNEIWPLVSDQPLKNEHSEMAYLLHLLFLKGYTYESLVTREMKTREVSRETALNEVMDMLRMFGLPADDRNRKITAAYLERTYPNDKVEIRQGGRFGKVLIRLQNQNMYMNS | failed
2 | MSLHPHAMPDMGPDMNKVPWMGDEQIAMLVYPGMTVMDLVGPHCMFGSLMGAKIYIVAKSLDPVTSDAGLAIVPTATFGTCPRDLTVLFAPGGTDGTLAAASDAETLAFMADRGARAKYITSVCSGSLILGAAGLLKGYKATSHWSCRDALAGFGAIPTEARVVRDRNRITGAGVTAGLDFGLSMVAELRDQTYAECAQLMSEYDPDPPFNAGSMKTAPAHVRTAMIELVAEFTKKADALAGFPKEGHHHHHH | not failed
3 | MIKPELPSNEAERLAALRQYDVLDSPAERAFDDLTMIASTLCETQMAAVVLVDEDRQWFKSAHGAPRSEAPRDISFCAHAILRPDEVLMVDDTLLDPRFHDNPMVVGSGGVRFYAGAPLVTSQGMALGSLCVFDQAPAHLREDQREALQALSRQASQLLELRLAGRQLRQQLHEREWYEQQMAGYYAQMDALHADLVEQTRTDPLTGLPNRRAFAVALAAATEQTRAVGQPLSVALLDVDHFKTVNDVHGHDQGDAVLRELSTLLRAHMAGAGTIARYGGEEFVLLLPNANLLQARVQCEYLRQSVAAMTIALPVTVSIGVATLYPQESVEAVIKRADQALYAAKRGGRDQVVALE | failed
4 | MKVVLAAIHPVPSPQAVPLANAFLKAYLGTDEELAARVAVTLCDFLRSTPADVCAAEILAHEPDAVGFSLYLWNTEESGRIAAELRRNRPGITIFAGGPQATADPLGTLTGGGYDFLILGEGEVPFLEVTARLADGRPFRGAPGTAWLDDGKLASRPQKPVALLDTIPSPFLSGIIEPGRYGGLLWQLSRGCDFACEYCFDYKGTKGVRRFSLERVDAELDFLVRHNVPQVFVLDSTFNVDAKRAKTILRMIRKRAPHIHFHFEVRSEFLDREMARLFAGITCSLQIGLQSADPAILKGIRRHFDPDDFRKRVALLNESGAVFGFDLIYGLPGDSLAGFRQSLDFALALYPNHLDIFPLAVLPGTPLAARAAQAGLDHLPAPPYALTATPTFPAPDMKRAARLAGACDIFYSRGKAVAWFNGVIAPLSLTPAEFLDAFGGWLARQGIEAREEALGDEAIWSLQRSFLAHIFADRRVRRLLPVALDLVDYHYHYAAALLAPPPELPTDRSLAGLNILDQVVCLAPSTRLARFSYEITDLLEAGNADLREICACFSPSPSWAVIYPRGNDIFTESLLESYFLLLEGLDGCCRAGDVVARLALSGEGAAEFLKFAAAEGIVTVRNCP | failed
5 | MSLGHIIVTGAGSGLGRALTIGLVERGHQVSMMGRRYQRLQQQELLLGNAVIGIVADLAHHEDVDVAFAAAVEWGGLPELVLHCAGTGEFGPVGVYTAEQIRRVMESNLVSTILVAQQTVRLIGERGGVLANVLSSAAQVGKANESLYCASKWGMRGFLESLRAELKDSPLRLVNLYPSGIRSEFWDNTDHVDPSGFMTPEDAAAYMLDALEARSSCHVTDLFIGRNEGHHHHHH | not failed
6 | MDRGEQGLLRTDPVPEEGEDVAATISATETLSEEEQEELRRELAKVEEEIQTLSQVLAAKEKHLAEIKRKLGINSLQELKQNIAKGWQDVTATSAYKKTSETLSQAGQKASAAFSSVGSVITKKLEDVKNSPTFKSFEEKVENLKSKVGGTKPAGGDFGEVLNSAANASATTTEPLPEKTQESL | failed
7 | MKTKGWGALAVLPLALALAGNVAAEEVKGKVKTVSVKAGQISLTVESKGVMLFRVTDGTTFANAASIREIHADDLLQVDYRVDGFDNVAKAVAKVVAKLPEGVTAMDTRELEALVAKGTEEGGYLLIDSRPAGKYNEAHIPTAVSIPFAELEKNPALLTASKDRLLVFYCGGVTUVLSPKSAGLAKKSGYEKVRVYLDGEPEWKKAELPLESSLAFVEKGNIVLIDLRSPEKVAAGHIPGAVGIPAADLAAAQAKFPAYRGAHLVFYSDSAEDLSQALELARDWNYKNATIFPGGIGAWQKAGKHLKTGAAAATVTYVKKLAPGEVGTEDFQAALKDGRTVVIDARAPGEFEKGHFKGAVNIPAEEAAKRLAEIPADRPVLVHCSTGTRAEMVYDLVKDKGYNLKYLKAGVEFAADGSYTISE | failed
8 | MLYKSVTESFNEFIIDRSDATCIRCKVCVRQCAYEVHAYEAKADALTEDNTLCIGCRRCSALCPTGAITIRSNEEVFKRNESWSNAHIRNLYAQADTGGILLAAMGNPAKYPIYWDHMLLDASQVTNPSIDPLREPMELRTYLGKKPHSIEVVRDEQTGKPKLATKLTPQIKMEYPFIFSAMSYGALNLNAHKAMAMAAKELGTLYNTGEGGLHRDLYQYGSNVMVQVASGRFGVSEAYLNAGVAIEIKVGQGAKPGIGGHLPGEKVNDQISETRMIPAGADAISPAPHHDIYSIEDLRQLIFALKEATNYTKPVSVKIAAVHHVAAIASGVARAGADIITIDGFRGGTGAAPQVIRDNVGIPMELALAAVDARLRDEGIRNQVSIVVGGGVRSSGDAIKAIALGADAINMGTSTLLALGCTLCQRCYTGKCPWGITTNNPYLAKRLNPELGAERLVNLVHAWGHEMKEILGGMGLNALESLRGNRYKLRALGLTEKDMNILGVMPAGE | failed
9 | MSSKRPPAPPPPIPGFKYISLLGSGGFSDVYLYEQDRPRRKVAVKVLLSDLKTEGARRRFESEANLMAQLSSHPYIVTIFEAEITETGHSYLAMEYCSRPSLDVRYRRQRFSVDEVLAVGIQVASAVETAHRAGIVHRDIKPANILVTDYNRPALTDFGISGTIGADTEDDAGMSIPWSPPEQFRGGAVDGVPVDIWALGATLYTLLAGRSPFVLPGQDNSQRELISRITNSPLPRLGRADVPESLELVLATSMAKSPESRYSSAHAFALALQRIQAELNLSVTPFEVLEEPGHGDDQHPDDNFEETRVRSIASIDPDASGTATTGSAPTFPARTFPTTATGASGQPTQPQSLPTSRPQPTNPPQTVQSHAGSSAPPQFHAPAPGSYTAPGSYTAPGTYTAPGTYRASGSHNATAEPDTAESTVLRGWQPSRPQDDLGATVSRSNSPAGASPATREDARPADHSKRNLWLAATGAAVLVVAIVVGVVLGAQAQPKVVPTEAASKPPADALGDGSVPDVEGLIGVKDPEKPDFADFRWTNPQPQSGDMYMWRYRTALIPEGDYEAVTEPHARPYFGGEKQLCIQVIIVRRDGTSSPGDTGSIACVDQ | failed
10 | MRTALLQNLFSLFPFDLHGDCDVPPARDGIRVSCIINFYGRLNVLAGILWSLAQQDFPRSAFEVILVEDRGGSDEGRALAEEFSSRLPIVYAPLDKQYGLMGYSRNFGLERSRGEFILFLDDDTIILQDDFLKTMVAYFDAQPGVSAIMPHGEASFAFVDDRYDFHDPFFMTSRCTAYRRTVLASLGGFMSSFIGQEDVEFVIRFHAAGNRCAAVPQLAYRHPPLYVTNLGKPMAVGSSFYGIRKRYPLVTWLLAVVNCSRHLPLVLAPSRKYREMGRFGLGFLWGVLTAPFRSGSLNYRLEHHHHHH | failed
11 | MYSMLKRVITEKDLLRQIRLLEQLLNVPQLTAKRLAAQIQTTERTVFSDLQYIRSQLPADWSIETDSSGIRLRNQGNAQTNELWSLFLPQSISIQLLKELLFTKELVTTSFLSTSGVSYETLKRHIKKMNQALRDFHLTIQLTTMTIQLIGAESNIRIFYHRLLVPFTHNNYFFDDYSIHEEHYFQFLKQVYSSELTVETEEIFGACWFFINTIRNKANCRVSQFSFDSKDVLFQLYQPSLAKLYASEGIYLQGEESFFAFFCFLESWNYDNVYGETLASALHTHYSQLRKSLQQFVTNLSTEEARPDLIQTNLLDNLLLLFIKYTESPTLSEQFQLEYQELMTEQAAEDLALSKSNQELLEILSRYTTIEEPTYFLSLASLLEKQAIYSIQAQTMTAYFLFQGEPAWKAFLQQELAAYLGTRVKLQAIEYVELSQLTLNEADIIISNFPLDHLDLPVFYLSLIPTKNELRRLAELTLHSYF | not failed
12 | LLHRTFMADAGWSDLKAFEVILRHIPHDAALHAANSTPVRYLQLFEHAHYAGGEWSNRGTNGIEGATSTAMGFSEVYSGTTLLITGDLSFMYDSNALWMPYVNGRIRVIVMRNGGGGIFRFIPGPDSLKELETCFETPLEVPVREMAGAYGWRYMKAVSAEELETVLPSFFASGDRAVLLEVETPRFENAPVLKSYFTYISGESYPVNR | failed
13 | AIAAQKISEAHEHIAKAEKYLKTSFMKWKPDYDSAASEYAKAAVAFKNAKQLEQAKDAYLQEAEAHANNRSLFHAAKAFEQAGMMLKDLQRMPEAVQYIEKASVMYVENGTPDTAAMALDRAGKLMEPLDLSKAVHLYQQAAAVFENEERLRQAAELIGKASRLLVRQQKFDEAAASLQKEKSMYKEMENYPTCYKKCIAQVLVQLHRADYVAAQKCVRESYSIPGFSGSEDCAALEDLLQAYDEQDEEQLLRVCRSPLVTYMDNDYAKLAISLKVPGGGGGKKKPSASASAQPQEEEDDEYAGGLC | failed
14 | MAKVTVILTSYNKPNTVGAAIESVLSQSFQDWELWIMDDASNEETQQVIDSYMLYPNVYYYNSQVKDEERHKSTRYATLINEAISRSTGDYLCYLTDDNYYLPERLQKMVQYLERYPSVDVVYSKQLVRTVDNQLITQAERIRPTKGTIRYAENIVDHCSVMHRRSLAEKVYETYGSYWNDDPICWHNGDAFFWNRLSAFALFYPINEVLDVCLKSPTSFQALNAFLPEYLPSGTLVKGLGADVYLIEDNHRRAITPTMFQQLHYREENVVHIPDPVLFKYKEGPAIDEHIWEQGKLFPNHRLIKASQEPHIYYVENHRKRHILTHKEFRLYKFRASEVVEVSRSFLDSIPTGPPISAHVNNQHPLPEGLLVRCGFKFYLSGNNRLYPIKSRVMKKLNLQMKNAVFLDSRAIGRYEQGETIEWKTNKCQPRFNTSSLEHHHHHH | failed
15 | STVKRKPVFVKVEQLKPGTTGHTLTVKVIEANIVVPVTRKTRPASSLSRPSQPSRIVECLIGDETGCILFTARNDQVDLMKPGATVILRNSRIDMFKGTMRLGVDKWGRIEATGAASFTVKEDNNLSLVEYE | not failed
16 | MSDDPEDRMLGWDESVFRDEHVFEIDWLPETFKHRDTQMETLKYALRPAVRGSRPLNVIARGPPGTGKTTAVQILFDELTAQTDVKTVRVNCQMDSTRYAVFSRLFAEIFDYEPPSSGISFKKLFSQITDKLVEEDEVLVVALDDVNYLFYESEASDTLYSLLRAHEAHSGAKIGVICVSSDLELDTIDALDTRVQSVFRPEEVYFNPYGQAEIADILGERADRGFNEGVVGPTVLDRVAELTEEQGGDLRVGIDLLRRAGMNAEMRASRSVETEDVEAAYDKSKYVHLSRRLRELSDSETALVEVIAAHDGQQAGDIYDAFSEQTDLGYTRYSEIINKLDQLDIIDADYTNVEGRGRSRELTLNYDADAVLERL | failed
17 | MKTIHIYTNGRFEEKQSGIVREFPLVLHVNGREIATLISSPHDLRFLVAGFLRNQGFVERAEDFHMLAVCDDFGIANARIRGELPERLKPVLTSGCGTGVTFTLETPKIPPPLALPAITTDAVFRLMEELARRADNYRSHGGIHSAAVGDGEGNLLLFAEDIGRHNTLDRIAGEALFKGIDLAGTILVTSGRVSTEMAAKCARLGIALIASRTSATDMAVKMCDEAGIPLIGYVRGGKFTVYAHHERLAMAPPVGAIHELPLPASAQGRRIPGITGVILAGGQSRRMGSNKALLPYKGGRFIEAIHRQLAEIFDEVLLVTNNPEQYDFLPCRKVADIHPGMGALAGIHAGLHHAANPAAFMVACDMPYLNSDLIRHLATLADPGGVLIPESPAGLEPLHAVYGKGCLAAIETTLLSGERRIVSFFGRTNVNRVNAEQVALFDPDYATFSNINTPVDYYRLRDGERDELDAALGADRIAGLEHHHHHH | failed
